Data: paper PMC12311895, “Single-Molecule Protein Interactions and Unfolding Revealed by Plasmon-Enhanced Fluorescence” (Analytical Chemistry, 2025)
Where no end group is shown, it is not given here.

Target: T1, MBP-PDZ protein (Erbin PDZ) with a single cysteine, conjugated to DNA (UniProt Q96RT1 1321-1410, ATTO 532 (labelled with ATTO 532-NHS); amine-modified DNA oligonucleotide coupled through sulfo-SMCC to the single cysteine between MBP and PDZ)
T1 construct: stretch between MBP and the PDZ domain that holds the single introduced cysteine; Erbin PDZ domain; Held on DNA-coated 40 by 80 nm gold nanorods by DNA hybridisation; About 50% of the protein in the conjugation mixture carried no DNA; also called Erbin PDZ protein; PDZ-DNA; not shown: MBP, N-terminal, kept
Test: single-molecule plasmon-enhanced fluorescence microscopy (TIRF); MBP-PDZ held on gold nanorods (40 by 80 nm) by DNA hybridisation, particles immobilised on glass; ATTO 655-labeled peptide in solution; 637 nm laser; 20 ms exposure; koff from bright times (double exponential fit), kon from event frequency against proteins per particle
Conditions: both partners purified

## CGAGRGSIDTWV (also: ATTO 655 label (site not given here)) [ATTO 655-labeled target peptide]
  Kd: 1 to 5.1 µM
  kon: 1.2e+07 M⁻¹ s⁻¹
